The values that follow come from US20020102268A1.

For this data set, the target named is uncleaved bovine spleen PARP (poly(ADP-ribose) polymerase) (UniProt P18493).
Sequence of UniProt P18493 (P18493 2-1016): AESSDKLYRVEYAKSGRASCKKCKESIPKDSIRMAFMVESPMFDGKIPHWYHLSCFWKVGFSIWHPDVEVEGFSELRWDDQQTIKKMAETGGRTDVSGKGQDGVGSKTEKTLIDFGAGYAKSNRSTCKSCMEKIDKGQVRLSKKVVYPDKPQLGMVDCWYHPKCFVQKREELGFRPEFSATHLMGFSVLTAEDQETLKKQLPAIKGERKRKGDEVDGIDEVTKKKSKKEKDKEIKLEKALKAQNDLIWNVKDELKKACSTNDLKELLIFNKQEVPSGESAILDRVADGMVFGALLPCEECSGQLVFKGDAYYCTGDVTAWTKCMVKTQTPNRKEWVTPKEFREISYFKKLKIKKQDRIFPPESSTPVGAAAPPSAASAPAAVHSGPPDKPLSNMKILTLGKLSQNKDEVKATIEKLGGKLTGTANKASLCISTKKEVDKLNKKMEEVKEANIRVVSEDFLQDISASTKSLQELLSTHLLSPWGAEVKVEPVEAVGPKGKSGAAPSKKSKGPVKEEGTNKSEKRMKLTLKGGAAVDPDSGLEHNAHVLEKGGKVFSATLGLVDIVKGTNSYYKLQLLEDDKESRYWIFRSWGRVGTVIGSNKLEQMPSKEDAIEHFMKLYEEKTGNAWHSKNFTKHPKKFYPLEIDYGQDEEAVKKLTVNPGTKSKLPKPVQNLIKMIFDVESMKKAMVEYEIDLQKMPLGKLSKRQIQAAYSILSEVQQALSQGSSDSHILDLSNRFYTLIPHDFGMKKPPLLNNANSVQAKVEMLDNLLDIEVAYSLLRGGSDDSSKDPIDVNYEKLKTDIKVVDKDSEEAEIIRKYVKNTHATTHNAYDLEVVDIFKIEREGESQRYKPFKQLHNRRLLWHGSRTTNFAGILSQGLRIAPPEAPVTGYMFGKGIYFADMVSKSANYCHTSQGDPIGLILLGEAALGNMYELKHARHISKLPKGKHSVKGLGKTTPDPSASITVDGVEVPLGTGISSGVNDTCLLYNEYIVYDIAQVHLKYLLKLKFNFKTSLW

On to recombinant CPP32 (caspase 3), for which the “cleavage of PARP, seen on Western blot” value was “two bands corresponding to uncleaved and cleaved PARP were visualized in the cleaved sample”.
